Measurements reported in patent publication US20190062420A1 (Janssen / Centocor, published 2019).

Legend:
[1] = target: T1, human FcγRIIA (NM_021642) expressed on cells (human, UniProt P12318 36-317); assay: cell-based or functional assay
T1 sequence: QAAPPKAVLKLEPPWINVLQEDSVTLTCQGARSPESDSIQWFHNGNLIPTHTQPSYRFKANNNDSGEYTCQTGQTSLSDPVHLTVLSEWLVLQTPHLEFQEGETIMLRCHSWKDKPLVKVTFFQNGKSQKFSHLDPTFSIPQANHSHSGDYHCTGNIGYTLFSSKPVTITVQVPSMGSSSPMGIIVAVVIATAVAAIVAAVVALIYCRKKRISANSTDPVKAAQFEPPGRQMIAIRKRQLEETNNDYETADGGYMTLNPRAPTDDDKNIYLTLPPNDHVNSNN

[2] = target: T2, human FcγRIIB (NM_004001) expressed on cells (human, UniProt P31994 43-310); assay: flow cytometry; Raji cells (express predominantly FcγRIIB)
T2 construct: Transiently expressed on Expi293F cells; also called Expi293F FcγRIIB; HEK293F cells expressing FcγRIIB
T2 sequence: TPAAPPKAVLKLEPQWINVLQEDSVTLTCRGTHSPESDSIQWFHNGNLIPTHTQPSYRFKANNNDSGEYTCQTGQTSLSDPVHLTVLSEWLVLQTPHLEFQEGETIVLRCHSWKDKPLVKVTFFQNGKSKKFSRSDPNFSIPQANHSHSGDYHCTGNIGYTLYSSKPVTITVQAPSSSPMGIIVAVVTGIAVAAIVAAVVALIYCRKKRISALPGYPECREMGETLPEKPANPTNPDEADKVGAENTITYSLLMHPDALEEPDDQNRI
Experimental: (§1) 2×10⁵ cells per well were seeded in 96-well plate and blocked in BSA Stain Buffer (BD Biosciences, San Jose, USA) for 30 min at 4° C. Cells were incubated with test mAbtyrin on ice for 1.5 h at 4° C. After being washed twice with BSA stain buffer, the cells were incubated with R-PE labeled anti-human or anti-mouse IgG secondary antibody (Jackson Immunoresearch Laboratories) for 45 min at 4° C. The cells were washed twice in stain buffer and then resuspended in 150 μL of Stain Buffer containing 1:200 diluted DRAQ7 live/dead stain (Cell Signaling Technology, Danvers, USA). PE and DRAQ7 signals of the stained cells were detected by Miltenyi MACSQuant flow cytometer (Miltenyi Biotec, Auburn, USA) using B2 and B4 channel respectively. Live cells were gated on DRAQ7 exclusion and the geometric mean fluorescence signals were determined for at least 10,000 live events collected. FlowJo software (Tree Star) was used for analysis. Data was plotted as the logarithm of antibody concentration versus mean fluorescence signals. Nonlinear regression analysis was performed by GraphPad Prism 6 (GraphPad Software, Inc.) and EC₅₀ values were calculated.
Raji cell is a cell line derived from B cells that express predominantly FcγRIIB. The binding of mAbtyrins on Raji cells were investigated by flow cytometry assay described for testing mAbtyrin binding to FcγR. Binding of the mAbtyrins were detected by flow cytometry using a PE-labeled Goat F(ab′) against Human IgG(γ).

[3] = target: T1, human FcγRIIA (NM_021642) expressed on …; assay: flow cytometry; Expi293F cells transfected with FcγRIIA
Experimental: (§2) Plasmids expressing cDNAs encoding human FcγRI (NM_000566) (SEQ ID NO: 44), FcγRIIA (NM_021642) (SEQ ID NO: 2), FcγRIIB (NM_004001) (SEQ ID NO: 3), and FcγRIIIA (NM_000569) (SEQ ID NO: 45) (Origene) were transiently transfected into Expi293F cells by ExpiFectamine293 transfection kit (Life Technologies). Flow cytometry assays were performed 48 h after transfection.
as §1

[4] = target: T2, human FcγRIIB (NM_004001) expressed on …; assay: flow cytometry; Expi293F cells transfected with FcγRIIB
Experimental: as §2, §1

[5] = target: T3, human OX40 expressed on HEK-Blue: OX40 cells (human, UniProt P43489 29-277); assay: flow cytometry; HEK-Blue: OX40 cells
T3 construct: also called CD134
T3 sequence: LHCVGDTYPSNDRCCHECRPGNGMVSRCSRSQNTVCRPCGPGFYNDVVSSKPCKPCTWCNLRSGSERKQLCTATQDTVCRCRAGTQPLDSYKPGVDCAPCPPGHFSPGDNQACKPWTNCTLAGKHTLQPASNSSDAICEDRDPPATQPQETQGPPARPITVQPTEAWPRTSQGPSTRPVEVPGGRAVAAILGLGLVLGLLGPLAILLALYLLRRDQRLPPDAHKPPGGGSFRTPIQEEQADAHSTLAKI
Experimental: as §1
The binding of mAbtyrins on OX40 expressed on cell surface were investigated by flow cytometry assay described for testing mAbtyrin binding to FcγR. A stable HEK-Blue reporter cell line expressing human OX40 (HEK-Blue: OX40) was established by transfection OX40 expression plasmid (pUNO1-hOX40) into HEK-Blue™ Null 1 cells engineered to express a secreted embryonic alkaline phosphatase (SEAP) reporter gene under the control of NF-κB-inducible promoter (IFN-β minimal promoter). mAbtyrins were incubated with HEK-Blue: OX40 cells and the binding was detected by flow cytometry using a PE-labeled Goat F(ab′)₂ against Human IgG(γ).

[6] = target: T2, human FcγRIIB (NM_004001) expressed on …; assay: cell-based or functional assay
[7] = target: T2, human FcγRIIB (NM_004001) expressed on …; assay: flow cytometry; Raji cells (express predominantly FcγRIIB); remark: listed apart in the source

B1: OX40SF2IgG2sigma_R2BS26_HC-C (bispecific antibody)
heavy: QVQLVQSGAEVKKPGSSVKVSCKASGYTFKDYTMHWVRQAPGQGLEWIGGIYPNNGGSTYNQNFKDRVTLTADKSTSTAYMELSSLRSEDTAVYYCARMGYHGPHLDFDVWGQGTTVTVSSASTKGPSVFPLAPCSRSTSESTAALGCLVKDYFPEPVTVSWNSGALTSGVHTFPAVLQSSGLYSLSSVVTVPSSNFGTQTYTCNVDHKPSNTKVDKTVERKCCVECPPCPAPPAAASSVFLFPPKPKDTLMISRTPEVTCVVVDVSAEDPEVQFNWYVDGVEVHNAKTKPREEQFNSTFRVVSVLTVLHQDWLNGKEYKCKVSNKGLPSSIEKTISKTKGQPREPQVYTLPPSREEMTKNQVSLTCLVKGFYPSDIAVEWESNGQPENNYKTTPPMLDSDGSFFLYSKLTVDKSRWQQGNVFSCSVMHEALHNHYTQKSLSLSPGKGGGGGSGGGGSGGGGSGGGGSLPAPKNLVVSRVTEDSARLSWTAPDAAFDSFPIAYIEYWTGGEAIVLTVPGSERSYDLTGLKPGTEYFVWIHGVKGGAWSSPLSAIFTT
light: DIQMTQSPSSLSASVGDRVTITCKASQDVGAAVAWYQQKPGKAPKLLIYWASTRHTGVPSRFSGSGSGTDFTLTISSLQPEDFATYYCQQYINYPLTFGGGTKVEIKRTVAAPSVFIFPPSDEQLKSGTASVVCLLNNFYPREAKVQWKVDNALQSGNSQESVTEQDSKDSTYSLSSTLTLSKADYEKHKVYACEVTHQGLSSPVTKSFNRGEC
notes: mAbtyrin: anti-OX40 antibody OX40SF2, effector silent IgG2sigma, with linker and R2BS26 FN3 domain at the C-terminus of the heavy chain; also called mAbtyrin
**Q.** For B1, which “% OX40 cell killed by macrophages (ADCP, 1 µg/ml)” value [1] is on record?
**A.** 92%

**Q.** What about the “Binding to Raji cells mean signals at 10 µg/ml” value [2] of the same binder?
**A.** 2290 mean fluorescence signal

**Q.** And the EC50 [2]?
**A.** > 10 µg/mL

**Q.** What about the EC50 [3] of the same binder?
**A.** 0.323 µg/mL

**Q.** What about the EC50 [4] of the same binder?
**A.** 1.38 µg/mL

**Q.** And the “Binding to HEK-Blue: OX40 cells (mean signal at 1 µg/ml)” value [5]?
**A.** 10200 mean fluorescence signal

**Q.** And the “% activity at 1 µg/ml with Raji cells (HEK-Blue: OX40 NF-κB reporter, relative to 1 µg/ml OX40 ligand)” value [6]?
**A.** 103%

**Q.** What about the “fold of agonism enhancement upon crosslinking (Raji cells)” value [6] of the same binder?
**A.** 25 fold

**Q.** What about the “fold binding signal over OX40SF2IgG2sigma at 10 µg/mL” value [7] of the same binder?
**A.** ≥ 6 fold

B2: OX40SF2IgG2sigma_R2BS9_HC-C (bispecific antibody)
heavy: QVQLVQSGAEVKKPGSSVKVSCKASGYTFKDYTMHWVRQAPGQGLEWIGGIYPNNGGSTYNQNFKDRVTLTADKSTSTAYMELSSLRSEDTAVYYCARMGYHGPHLDFDVWGQGTTVTVSSASTKGPSVFPLAPCSRSTSESTAALGCLVKDYFPEPVTVSWNSGALTSGVHTFPAVLQSSGLYSLSSVVTVPSSNFGTQTYTCNVDHKPSNTKVDKTVERKCCVECPPCPAPPAAASSVFLFPPKPKDTLMISRTPEVTCVVVDVSAEDPEVQFNWYVDGVEVHNAKTKPREEQFNSTFRVVSVLTVLHQDWLNGKEYKCKVSNKGLPSSIEKTISKTKGQPREPQVYTLPPSREEMTKNQVSLTCLVKGFYPSDIAVEWESNGQPENNYKTTPPMLDSDGSFFLYSKLTVDKSRWQQGNVFSCSVMHEALHNHYTQKSLSLSPGKGGGGGSGGGGSGGGGSGGGGSLPAPKNLVVSRVTEDSARLSWTAPDAAFDSFWIYYLEYWRGGEAIVLTVPGSERSYDLTGLKPGTEYFVQIHGVKGGQYSYPLSAIFTT
light: DIQMTQSPSSLSASVGDRVTITCKASQDVGAAVAWYQQKPGKAPKLLIYWASTRHTGVPSRFSGSGSGTDFTLTISSLQPEDFATYYCQQYINYPLTFGGGTKVEIKRTVAAPSVFIFPPSDEQLKSGTASVVCLLNNFYPREAKVQWKVDNALQSGNSQESVTEQDSKDSTYSLSSTLTLSKADYEKHKVYACEVTHQGLSSPVTKSFNRGEC
notes: mAbtyrin: anti-OX40 antibody OX40SF2, effector silent IgG2sigma, with linker and R2BS9 FN3 domain at the C-terminus of the heavy chain; also called mAbtyrin
**Q.** Which results are given for B2?
**A.** % OX40 cell killed by macrophages (ADCP, 1 µg/ml) [1]: 85%; Binding to Raji cells mean signals at 10 µg/ml [2]: 3260 mean fluorescence signal; EC50 [2]: > 10 µg/mL; EC50 [3]: 0.498 µg/mL; EC50 [4]: 1.51 µg/mL; Binding to HEK-Blue: OX40 cells (mean signal at 1 µg/ml) [5]: 8900 mean fluorescence signal; % activity at 1 µg/ml with Raji cells (HEK-Blue: OX40 NF-κB reporter, relative to 1 µg/ml OX40 ligand) [6]: 88.1%; fold of agonism enhancement upon crosslinking (Raji cells) [6]: 21 fold; fold binding signal over OX40SF2IgG2sigma at 10 µg/mL [7]: ≥ 6 fold
